Data as given in patent publication US8465735B2, “Variant form of urate oxidase and use thereof” (Savient Pharmaceuticals, Inc., priority 2005, dated 2013).

Substrate: O=c1[nH]c(=O)c2[nH]c(=O)[nH]c2[nH]1
Test: purified protein, by the assay type
Settings: other: sodium borate buffer, pH 9.2, 25.0 °C

B1: Pig uricase, native (Sigma) (Sus scrofa) (protein)
chain: MAHYRNDYKKNDEVEFVRTGYGKDMIKVLHIQRDGKYHSIKEVATSVQLTLSSKKDYLHGDNSDVIPTDTIKNTVNVLAKFKGIKSIETFAVTICEHFLSSFKHVIRAQVYVEEVPWKRFEKNGVKHVHAFIYTPTGTHFCEVEQIRNGPPVIHSGIKDLKVLKTTQSGFEGFIKDQFTTLPEVKDRCFATQVYCKWRYHQGRDVDFEATWDTVRSIVLQKFAGPYDKGEYSPSVQKTLYDIQVLTLGQVPEIEDMEISLPNIHYLNIDMSKMGLINKEEVLLPLDNPYGRITGTVKRKLTSRL
Question: Which Km does the source give for B1 here?
Answer: 5.85 µM

Question: And the kcat?
Answer: 15 s⁻¹
